Consider one molecule from patent US20170121395A1 (SINGH BIOTECHNOLOGY, published 2017).

As a reminder, the EC50 is the concentration that produces a half-maximal response. By Kd is commonly meant the free concentration of one partner at which half of the binding sites on the other are occupied at equilibrium, for simple one-to-one binding. By koff is commonly meant the first-order rate constant of dissociation. For orientation: kon means a measure of how fast the partners come together.

Read-outs that look alike come from different tables or passages of the source.

The target of experiment [1] is T1, recombinant HIV-1 reverse transcriptase protein (HIV-1, UniProt P03367 600-858).
T1 construct: also called rHIV-1; HIV-1 RT

Experiment [2] has as its target T1, recombinant HIV-1 reverse transcriptase …. The source holds these as a separate data set.
Experiment [3] has the same target. Description: SPR (Biacore 3000), sdAb immobilized (1200 RU), full kinetics, analyte 0-200 nM. A general note: In SPR one partner is held on a chip, and binding of the other changes the refractive index at the surface.
Experiment [4] shares this target. The source holds these as a separate data set.
The target is the same in experiment [5]. This is another data set of the same source.
Experiment [6] has the same target. The source holds these as a separate data set.
Experiment [7] has the same target. Briefly: SPR (Biacore 3000), sdAb immobilized, analyte 100 nM.
Experiment [8] shares this target. The source holds these as a separate data set.
Experiment [9] shares this target. Description: ELISA, plate coated with HIV-1 RT, sdAb at 1 µg/mL, checkerboard of coating, 2° antibody and HRP. (An ELISA detects its analyte on a solid surface through an enzyme-linked reagent.)

B1: HIV1-9 anti-HIV-1 RT sdAb (VHH)
VHH: EVQLVESGGGSVQAGGSLRLSCAASVYSYNTNCMGWFRQAPGKEREGVAVIYAAGGLTYYADSVKGRFTISQENGKNTVYLTMNRLKPEDTAMYYCAAKRWCSSWNRGEEYNYWGQGTQVTVSS
notes: also called HIV1-9 VHH; HIV1-9 anti-RT sdAb
Turning to B1, the EC50 stood at 0.0227 µg/mL in experiment [1]; 0.0133 µg/mL in experiment [2]; 0.0161 µg/mL in experiment [4]; 0.015 µg/mL in experiment [5]; 0.0191 µg/mL in experiment [6]; 0.019 µg/mL in experiment [8]. Moreover, the Kd in experiment [3] was determined as 3.85 nM; in experiment [7], 4.25 nM. The values for the koff in experiment [3] and in [7] were 0.000731 s⁻¹ and 0.000379 s⁻¹, respectively. Also, the kon in experiment [3] is 190000 M⁻¹ s⁻¹; in [7], 89100 M⁻¹ s⁻¹. Besides, in experiment [9], the signal-to-noise ratio was over 20.
